Experimental data reported in patent US7045576B2, “Adjuvants and copolymer compositions” (Cytrx Corporation, priority 1994, dated 2006).

How the values were obtained:
ovalbumin (OVA) [1] = format: in vivo, C57BL/6 mice; conditions: two immunizations with 15 μg of OVA in saline, no adjuvant, 4 weeks
Protocol: The immune responses induced by experimental subunit vaccine formulations based on a prototype immunogen combined with different adjuvants including CRL1005 were evaluated. Ovalbumin (OVA) was selected as to vaccine immunogen since dose levels of OVA for obtaining optimal and suboptimal immune responses had been established previously. […] OVA was administered at a dose of 15 ug/dose in a total volume of 100 ul. This dose of OVA had been established as non-immunogenic unless combined with an adjuvant.
Ninety mice (C57BL/6) were divided into 9 test and control groups of 10 mice per group. The mice were immunized twice with 28 days between immunizations. Vaccines were administered by needle injection subcutaneously (s.c.) in a total volume of 100 μ/dose.
To evaluate antibody responses, 4 weeks after the second immunization blood was collected via the retro-orbital sinus from 6 mice/group and sera was recovered for serological assay.

[2] = system: splenic mononuclear cells; format: cell-based, C57BL/6 mice; conditions: immunization with OVA alone
EG-7.OVA cells = experiment: OVA-specific cytotoxic T-lymphocyte (CTL) 51Cr-release assay; format: cell-based, C57BL/6 mice; conditions: after culture of spleen cells with irradiated EG-7.OVA; two immunizations
Description: FIG. 12 presents OVA-specific cytotoxic T-lymphocyte (CTL) responses induced in C57BL/6 mice following two immunizations (days 0 and 28) with OVA in saline (left) or formulated in aqueous solution with CRL1005 copolymer adjuvant (right). A standard ^51 chromium (CR)-release CTL assay was used with OVA-transfected EG-7.OVA cells and control EL-4 cells as the targets. Spleen cells were used as the source of precursor CTL, which were induced to mature to functional CTL effector cells, by culture for 6 days with irradiated EG-7.OVA or EL-4 cells. All testing was done in triplicate using a titration of Effector: Target cells, shown as ratios. Data are shown as the Percent Specific Release (Test Release−Spontaneous Release/Maximum Release−Spontaneous Release)×100.
Cytotoxic T-lymphocyte responses (CTL) were measured using a standard in vitro assay and two different cells for stimulator and target cells. The OVA.EG7 cell line was used as both target cells and antigen specific stimulator cells; cells were irradiated when used as stimulator cells. Control target cells were wild-type EL-4 cells, that are not transfected with OVA. Splenic mononuclear cells were used as the effector cells. These cells were assayed after in vitro stimulation to induce precursor CTL maturation to functional CTL effector cells.

ovalbumin (OVA) [3] = experiment: Serum antibody responses to OVA after s.c., oral or nasal delivery; format: in vivo, C57BL/6 mice
Protocol: The utility of the CRL1005 copolymer for use as an oral vaccine adjuvant/delivery system using OVA as the vaccine antigen was evaluated. To ensure immunogenicity of the formulation, C57BLJ6 mice in the positive control group were immunized twice, at ten day intervals, subcutaneously (s.c.) with 25 μg/100 μl dose of OVA+/−1.25% CRL1005 in PBS. Mice immunized orally received 125 μg/500 μl dose of +/−1.25% CRL1005 in bicarbonate buffer, again at 10 day intervals. Mice were also immunized using nasal delivery since dilution or degradation in the stomach was considered to be a possibility. Mice received the same amounts of OVA and CRL1005 used for the s c injections but in a volume of 20 μl. Blood was collected as the source of serum antibodies for testing 14 days after the second immunization.

Sequence of ovalbumin (OVA) (P01012 whole entry): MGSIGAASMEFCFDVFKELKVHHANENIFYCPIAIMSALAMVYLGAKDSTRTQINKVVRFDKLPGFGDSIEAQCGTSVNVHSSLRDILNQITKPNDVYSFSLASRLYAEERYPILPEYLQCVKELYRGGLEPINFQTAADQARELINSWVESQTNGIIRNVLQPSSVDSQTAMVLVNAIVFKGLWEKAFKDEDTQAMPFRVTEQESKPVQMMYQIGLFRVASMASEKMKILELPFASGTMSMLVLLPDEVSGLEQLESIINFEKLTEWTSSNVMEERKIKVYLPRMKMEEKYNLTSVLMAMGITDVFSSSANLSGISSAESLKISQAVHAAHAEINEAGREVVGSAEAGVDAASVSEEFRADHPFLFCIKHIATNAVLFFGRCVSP

B1: OVA: ovalbumin, prototype vaccine immunogen given without adjuvant (protein, UniProt P01012 2-386, looked up)
Ovalbumin: GSIGAASMEFCFDVFKELKVHHANENIFYCPIAIMSALAMVYLGAKDSTRTQINKVVRFDKLPGFGDSIEAQCGTSVNVHSSLRDILNQITKPNDVYSFSLASRLYAEERYPILPEYLQCVKELYRGGLEPINFQTAADQARELINSWVESQTNGIIRNVLQPSSVDSQTAMVLVNAIVFKGLWEKAFKDEDTQAMPFRVTEQESKPVQMMYQIGLFRVASMASEKMKILELPFASGTMSMLVLLPDEVSGLEQLESIINFEKLTEWTSSNVMEERKIKVYLPRMKMEEKYNLTSVLMAMGITDVFSSSANLSGISSAESLKISQAVHAAHAEINEAGREVVGSAEAGVDAASVSEEFRADHPFLFCIKHIATNAVLFFGRCVSP
With B1 the OVA-specific antibody responses (ovalbumin (OVA) [1]) was “not induced”, the cytokine responses [2] was “did not induce measurable cytokine responses” and the “OVA-specific CTL activity” value (EG-7.OVA cells) was “not detected”. For the same molecule, the “serum antibody response to OVA” value (ovalbumin (OVA) [3]; nasal, 25 μg OVA +/- 1.25% CRL1005 in 20 μl, twice) was “failed to induce antibody responses”, the “serum antibody response to OVA” value (ovalbumin (OVA) [3]; oral, 125 μg OVA +/- 1.25% CRL1005 in bicarbonate buffer, twice) was “failed to induce antibody responses” and the “serum antibody response to OVA” value (ovalbumin (OVA) [3]; s.c., 25 μg OVA +/- 1.25% CRL1005, twice, 14 days after second immunization) was “effective”.
